Data on four molecules can be found in US20250243282A1.

Assay [1] concerns the target Recombinant human Gal3 (rhGal3) (TrueBinding, #QC200361) (human) (UniProt P17931). Briefly: cell-based or functional assay.
Assay [2] deals with cynomolgus Gal3 (cynomolgus). Briefly: method not stated (FIG. 20).
Sequence of cynomolgus Gal3 (cynomolgus) (chain, as listed by the source): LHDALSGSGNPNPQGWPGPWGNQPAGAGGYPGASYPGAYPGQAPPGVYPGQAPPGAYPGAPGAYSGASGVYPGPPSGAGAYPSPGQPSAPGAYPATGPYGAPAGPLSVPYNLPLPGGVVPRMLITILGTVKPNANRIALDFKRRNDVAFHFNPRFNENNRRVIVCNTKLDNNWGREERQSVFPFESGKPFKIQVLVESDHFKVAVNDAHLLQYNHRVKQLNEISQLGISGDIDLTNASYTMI

Sequence of Recombinant human Gal3 (rhGal3) (TrueBinding, #QC200361) (human) (P17931 2-250 limits assumed): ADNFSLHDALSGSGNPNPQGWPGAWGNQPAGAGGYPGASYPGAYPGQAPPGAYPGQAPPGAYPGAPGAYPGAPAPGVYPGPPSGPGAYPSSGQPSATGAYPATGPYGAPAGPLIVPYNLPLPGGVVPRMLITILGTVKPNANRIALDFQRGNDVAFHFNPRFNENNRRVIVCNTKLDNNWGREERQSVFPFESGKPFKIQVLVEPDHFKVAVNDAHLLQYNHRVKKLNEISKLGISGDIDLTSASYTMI

B1: 847.14H4 (antibody, from a related filing, V domains shown)
VH: QIQLVQSGPELTKPGETVKISCKASGYTFTDYGMNWVRQAPGETLKWMGWINTYTGEPTYADDFKGRFAFSLESSASTAYLQINNLKNEDVATYFCARYPMDYWGQGTSVTVSS
VL: QAVVTQESALTTSPGETVTLTCRSSTGAVTTSNYANWVQEKPDHLFTGLIGGTNNRAPGVPARFSGSLIGDKAALTITGAQTEDEAIYFCALWYSNHLVFGGGTKLTVL
B1: in assay [1], the % inhibition of CD62L shedding was found to be 34.4%, the % inhibition of IL-6 secretion was -71.4% and the % inhibition of TNFα secretion was -181%.

B2: 14D11.2D2 (antibody, from another filing, V domains shown)
VH: QVQLKESGPGLVAPSQSLSITCTISGFSLSSYGVHWVRQPPGKGLEWLVVIWSDGSTTYNSTLKSRLSISKDNSKSQVFLKMNSLQTDDTAMYYCARHISNYGTMDYWGQGTSVTVS
VL: DIQMTQTTSSLSASLGDRVTISCRASQDIRNYLNWYQQKPDGSIKLLIYYTSRLHSGVPSRFSGSGSGTDYSLTIRNLEQEDIATYFCQHFNTLPPTFGGGTKLEIK
B2: the % inhibition of CD62L shedding in assay [1] turned out to be 86.2%.

B3: F846C.1H5 (antibody, V domains shown)
VH: EVQLLESGGGLVKPGGSLKLSCAASGFTFSSYAMSWVRQTPEKRLEWVASISSGGDTYYPDSVKGRFTISRDNARNILYLQMSSLRSEDTAMYYCASYGNSLFDYWGQGTTLTVSS
VL: DVVMTQTPLSLPVSLGDQASISCRSSQSLVHNSGNTYLHWYLQRPGQSPNLLIYKVSNRFSGVPDRFSGSGSGTDFTLKISRVAAEDLGVYFCSQSTHVPPTFGGGTKLEIKR
As for B3, in assay [1], the % inhibition of CD62L shedding came to 100%, the % inhibition of IL-6 secretion was -49.7% and the % inhibition of TNFα secretion was -162%.

B4: TB006 (antibody, human IgG4 S228P, kappa, V domains shown)
VH: QVQLVQSGAEVKKPGASVKVSCKASGYSFTNYYMHWVRQAPGQRLEWMGWIYPGSGNTNYNEKFQGRVTITADTSASTAYMELSSLRSEDTAVYYCSTAPGGFDVWGQGTTVTVSS
VL: DIVMTQTPLSLSVTPGQPASISCKSSKSLLHSDGITYLYWYLQKPGQSPQLLIYRMSNLASGVPDRFSGSGSGTDFTLKISRVEAEDVGVYYCAQMLEFPLTFGQGTKLEIKR
In general, Kd refers to the free concentration of one partner at which half of the binding sites on the other are occupied at equilibrium, for simple one-to-one binding. Low readings indicate tighter binding, high ones weaker binding. On to B4, for which the Kd in assay [2] came to 5.1 nM.
